The nature of this data set: yeast display, Sf9 membrane polyspecificity reagent, FACS + sequencing; frameworks hold sequencing errors. The method, boiled down:
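Using colony PCR, genes from sorted yeast display clones were amplified, then sequenced on MiSeq at 2 × 250 and filtered by CDR length. The clones had been stained with 10% biotinylated, detergent-solubilized Sf9 membrane reagent for 1 hour at 4 °C and sorted by FACS into low and high (top ~1%) gates on anti-HA and streptavidin fluorescence. Polyreactivity labels come from the gate of origin.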
Take “QVQLVESGGGLVQAGGSLRLSCAASGRTFKRYAMGWYRQAPGNERELVAAIRRGGITNYADSVKGRFTISRDNAKNTVYLQMNSLKPEDTAVYYCAKDGVTYPYSYEYDYWGLGTQVTVSS”: the “polyreactivity (PSR sort gate)” value is “low polyreactivity”.

As for “QVQLVESGGGLVQAGGSLRLSCAASGRTFKVYAMGWYRQAPGKERELVASINRGSSTYADSVKGRFTISRDNAKNTVYLQMNSLKPEDTAVYYCAARWWRQSRYYYWGQGTQVTVSS”, the “polyreactivity (PSR sort gate)” value is reported as “high polyreactivity”.

On to “QVQLVESGGGLVQAGGSLRLSCAASGRTFKYKAMGWYRQAPGKERELVDAISSDDSTNYADSVKGRFTISRDKAQNTVYLQMNSLKPEDTAVYYCAARYGYSKWPDRVQAYKHDYWGQGTQVTVSS”, for which the “polyreactivity (PSR sort gate)” value is “low polyreactivity”.

With “QVQLVESGGGLVQAGGSLRLSCAASGRTFKYNAIGWYRQAPGKERELVAVISRSTGRTYYADSVKGRFTISRDNAKNTVYLQMNSLKPEDTAVYYCNRVSRQYYYQRGFEYDYWGQGTQVTVSS”, the “polyreactivity (PSR sort gate)” value is on record as “high polyreactivity”.

Regarding “QVQLVESGGGLVQAGGSLRLSCAASGRTFKYNAMGWYRQAPGKERELVAAITSSGGRTYYADSVKGRFTISRDNAKNTVYLQMNSLKPEDTAVYYCAARGYPSDYKYEYNYWGQGTQVTVSS”, the “polyreactivity (PSR sort gate)” value was “high polyreactivity”.

Turning to “QVQLVESGGGLVQAGGSLRLSCAASGRTFKYNAMGWYRQAPGKRKELVAAISSGGSTYYADSVKGRFTISRDNAKNTVYLQMNSLKPEDTAVYYCAVRNTKSYWFGYWGQGTQVTVSS”, the “polyreactivity (PSR sort gate)” value is given as “high polyreactivity”.

On to “QVQLVESGGGLVQAGGSLRLSCAASGRTFKYYALGWYRQAPGKERELVAAISNGGRTNYADSVKGRFTISRDNAKNTVYLQMNSLKPEDTAFYYCAKRTFYFSDYDYWGQGTQVTVSS”, for which the “polyreactivity (PSR sort gate)” value was “high polyreactivity”.

With “QVQLVESGGGLVQAGGSLRLSCAASGRTFKYYALGWYRQAPGKERELVAAISTRGGRTYADSVKGRFTISRDNAKNTVYLQMNSLKPEDTAVYYCARDSNVGHHGFDYWGQGTQVTVSS”, the “polyreactivity (PSR sort gate)” value is on record as “low polyreactivity”.

Regarding “QVQLVESGGGLVQAGGSLRLSCAASGRTFKYYAMGWYRQAPGKERELVAAISRRGGRTYYADSVKGRFTISRDNAKNTVYLQMNSLKPEDTAVYYCAAVFETGAGGFYYTLQYDSWGQGTQVTVSS”, the “polyreactivity (PSR sort gate)” value is reported as “high polyreactivity”.

As to “QVQLVESGGGLVQAGGSLRLSCAASGRTFKYYAMGWYRQAPGKERELVAAISRSGGTTYYADSVKGRFTISRDNAKNTVYLQMNSLKPEDTAVYYCAARCATRSRYDYWGQGTQVTVSS”, the “polyreactivity (PSR sort gate)” value is given as “high polyreactivity”.

For the sequence “QVQLVESGGGLVQAGGSLRLSCAASGRTFKYYAMGWYRQAPGKERELVAAISSGSSTYYADSVKGRFTISRDNAKNTVYLQMNSLKPEDTAVYYCNAVYKLSYLLSGTSEYYTYDYWGQGTQVTVSS”, the “polyreactivity (PSR sort gate)” value is “high polyreactivity”.

For “QVQLVESGGGLVQAGGSLRLSCAASGRTFKYYAMGWYRQAPGKERELVAAISYNGGSTFYADSVKGRFTFSRDNAKNTVYLQMNSLKPEDTAVYYCAAGPRGTGKYYWGQGTQVTVSS”, the “polyreactivity (PSR sort gate)” value was “high polyreactivity”.

Consider “QVQLVESGGGLVQAGGSLRLSCAASGRTFKYYAMGWYRQAPGKERELVASISNGGNTNYADSVKGRFTISRDNAKNTVYLQMNSLKPEDTAVYYCAAGYVVATRYDYWGQGTQVTVSS”, for which the “polyreactivity (PSR sort gate)” value is recorded as “high polyreactivity”.

Regarding “QVQLVESGGGLVQAGGSLRLSCAASGRTFKYYAMGWYRQAPGKERELVASITRGSSTNYADSVKGRFTISRDNAKNTVYLQMNSLKPEDTAVYYCATGPGRALPRPTSAYYYWGQGTQVTVSS”, the “polyreactivity (PSR sort gate)” value is “high polyreactivity”.

In the case of “QVQLVESGGGLVQAGGSLRLSCAASGRTFKYYTMGWYRQAPGKERELVAAITSDGSTNYADSVKGRFTISRDNAKNTVYLQMNSLKPEDTAVYYCAAEIRWVFLSYEYWGQGTQVTVSS”, the “polyreactivity (PSR sort gate)” value was “high polyreactivity”.

“QVQLVESGGGLVQAGGSLRLSCAASGRTFLAYAMGWYRQAPGKERELVAAISKSGGRTYYADSVKGRFTISRDNAKNTVYLQMNSLKPEDTAVYYCAADKQAYVTDDYWGQGTQVTVSS”: the “polyreactivity (PSR sort gate)” value is “high polyreactivity”.

“QVQLVESGGGLVQAGGSLRLSCAASGRTFLGYAMGWYRQAPGKERELVAAITSGTRTYADSVKGRFTISRDNAKYTVYLQMNSLKPEDTAVYYCAALRWQYRLYSYSFRSGRFDYWGQGTQVTVSS”: the “polyreactivity (PSR sort gate)” value was “low polyreactivity”.

Regarding “QVQLVESGGGLVQAGGSLRLSCAASGRTFLGYAMGWYRQAPGKERELVAAITWRGGITYYADSVKGRFTISRDNAKNTVYLQMNSLKPEDTAVYYCARDYGQYGWYRYGRTFDNWGQGTQVTVSS”, the “polyreactivity (PSR sort gate)” value was “high polyreactivity”.

As to “QVQLVESGGGLVQAGGSLRLSCAASGRTFLHNAMGWYRQAPGKERELVAAISSRGGSTYYADSVKGRFTISRDNAKNTVYLQMNSLKPEDTAVYYCAAYIYGTYYYWGQGTQVTVSS”, the “polyreactivity (PSR sort gate)” value is given as “high polyreactivity”.

Consider “QVQLVESGGGLVQAGGSLRLSCAASGRTFLHYAMGWYRPAPGKERELVAAMSWSGGSTNYADSVKGRFTISRDNAKNTVYLQMNSLKPEDTAVYYCAADFYWVIYSTVEYGYWGQGTQVTVSS”, for which the “polyreactivity (PSR sort gate)” value is on record as “low polyreactivity”.

As for “QVQLVESGGGLVQAGGSLRLSCAASGRTFLINAMGWYRQAPGKERELVAAITQSGGSTYYADSVKGRFTISRDNAKNTVYLQMNSLKPEDTAVYYCAADVPGVYPYDYWGQGTQVTVSS”, the “polyreactivity (PSR sort gate)” value is on record as “low polyreactivity”.

For “QVQLVESGGGLVQAGGSLRLSCAASGRTFLIYAMGWYRQAPRKEREFVAAIRGRGGSTYYADSVKGRFTISRDNAKNTVYLQMNSLKPEDTAVYYCAATFPGRSFRIRGYGYDYWGQGTQVTVSS”, the “polyreactivity (PSR sort gate)” value is recorded as “high polyreactivity”.

As to “QVQLVESGGGLVQAGGSLRLSCAASGRTFLNYAMGWYRQAPGKEREFVAAITWRVGTTYYADSVKGRFTISRDNAKNTVYLQMNSLKPEDTAVYYCAARRSVGGYGYWGQGTQVTVSS”, the “polyreactivity (PSR sort gate)” value is “high polyreactivity”.

Take “QVQLVESGGGLVQAGGSLRLSCAASGRTFLPNAMGWYRQAPGKDRELVAVITSGGSTNYADSVKGRFTISRDNAKNTVYLQMNSLKPEDTAVYYCAARRWSSSQGHWGKSAGYGYWGQGTQVTVSS”: the “polyreactivity (PSR sort gate)” value is “low polyreactivity”.

With “QVQLVESGGGLVQAGGSLRLSCAASGRTFLPNAMGWYRQAPGKERELVAVITSGGSTNYADSVKGRFTISRDNAKNTVYLQMKSLKPEDTAVYYCAARRWSSSQGHWGKSAGYGYWGQGTQVTVSS”, the “polyreactivity (PSR sort gate)” value is recorded as “low polyreactivity”.

On to “QVQLVESGGGLVQAGGSLRLSCAASGRTFLPNAMGWYRQAPGKERELVAVITSGGSTNYADSVKGRFTISRDNAKNTVYLQMNSLKPEDTAVYYCAADWWRVEMEYWGQGTQVTVSS”, for which the “polyreactivity (PSR sort gate)” value is on record as “low polyreactivity”.

“QVQLVESGGGLVQAGGSLRLSCAASGRTFLPNAMGWYRQAPGKERELVAVITSGGSTNYADSVKGRFTISRDNAKNTVYLQMNSLKPEDTAVYYCAARRWSSSQGHWGKSAGYGYLGQGTQVTVSS”: the “polyreactivity (PSR sort gate)” value is listed as “low polyreactivity”.

Turning to “QVQLVESGGGLVQAGGSLRLSCAASGRTFLPNAMGWYRQAPGKERELVAVITSGGSTNYADSVKGRFTISRDNAKNTVYLQMNSLKPEDTAVYYCAARRWSSSQGHWGKSAGYGYWGQGTQVTVSS”, the “polyreactivity (PSR sort gate)” value was “low polyreactivity”.

As for “QVQLVESGGGLVQAGGSLRLSCAASGRTFLPYAMGWYRQAPGKEWELVAAIDSSGGSTYYADSVKGRFTISRDNAKNTVYLQMNSLKPEDTAVYYCAADLYSSYYLYDSWGQGTQVTVSS”, the “polyreactivity (PSR sort gate)” value is reported as “low polyreactivity”.

As to “QVQLVESGGGLVQAGGSLRLSCAASGRTFLRNTMGWYRQAPGKERELVAAISRSGATTYYADSVKGRFTISRDNAKNTVYLQMNSLKPADTAVYYCAALGQGRTSATSFVDYEYWGQGTQVTVSS”, the “polyreactivity (PSR sort gate)” value is recorded as “high polyreactivity”.

These data come from the nanobody polyreactivity screen of Harvey et al. (2022).
